Measurements as given in PMC11836289, “A humanized NOVA1 splicing factor alters mouse vocal communications”.

What was measured:
[1] = biological target: T1, NOVA1wt (UniProt Q9JKN6 1-507); assay: EMSA; 10 mM HEPES (pH not stated), 3 mM MgCl2, 150 mM NaCl, 5% glycerol, 0.1 mM DTT, 0.1 U/ul RNase OUT, 10 mg/ml yeast tRNA, 1 mg/ml poly dI-dC, 22 C, 60 min; protein 0.5-2 pmol, RNA 0.08 pmol per reaction; 8% native gel; details: protein: recombinant; tags: GST tag (N-term) cleaved by PreScission; pGEX6p1 remnant; label: 32P; hairpin
T1 sequence: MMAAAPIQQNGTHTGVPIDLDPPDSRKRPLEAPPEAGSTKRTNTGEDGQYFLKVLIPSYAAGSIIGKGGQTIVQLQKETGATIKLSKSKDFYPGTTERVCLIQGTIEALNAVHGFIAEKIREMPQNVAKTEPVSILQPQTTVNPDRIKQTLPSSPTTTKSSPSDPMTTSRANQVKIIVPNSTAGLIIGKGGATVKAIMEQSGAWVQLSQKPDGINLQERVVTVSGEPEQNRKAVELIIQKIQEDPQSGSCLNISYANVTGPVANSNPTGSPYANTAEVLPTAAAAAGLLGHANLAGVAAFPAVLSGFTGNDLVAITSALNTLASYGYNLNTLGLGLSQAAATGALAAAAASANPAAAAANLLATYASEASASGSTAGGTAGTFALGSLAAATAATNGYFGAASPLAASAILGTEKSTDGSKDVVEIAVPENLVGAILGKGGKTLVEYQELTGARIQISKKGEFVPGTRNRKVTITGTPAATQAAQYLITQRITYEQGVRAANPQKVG

[2] = biological target: T2, NOVA1hu (humanized) (UniProt Q9JKN6 1-507, I197V); assay: EMSA; text prints 105.83 ± 8.3; figure and source data 105.3; 10 mM HEPES (pH not stated), 3 mM MgCl2, 150 mM NaCl, 5% glycerol, 0.1 mM DTT, 0.1 U/ul RNase OUT, 10 mg/ml yeast tRNA, 1 mg/ml poly dI-dC, 22 C, 60 min; protein 0.5-2 pmol, RNA 0.08 pmol per reaction; 8% native gel; details: protein: recombinant; tags: GST tag (N-term) cleaved by PreScission; pGEX6p1 remnant; label: 32P; hairpin
T2 sequence: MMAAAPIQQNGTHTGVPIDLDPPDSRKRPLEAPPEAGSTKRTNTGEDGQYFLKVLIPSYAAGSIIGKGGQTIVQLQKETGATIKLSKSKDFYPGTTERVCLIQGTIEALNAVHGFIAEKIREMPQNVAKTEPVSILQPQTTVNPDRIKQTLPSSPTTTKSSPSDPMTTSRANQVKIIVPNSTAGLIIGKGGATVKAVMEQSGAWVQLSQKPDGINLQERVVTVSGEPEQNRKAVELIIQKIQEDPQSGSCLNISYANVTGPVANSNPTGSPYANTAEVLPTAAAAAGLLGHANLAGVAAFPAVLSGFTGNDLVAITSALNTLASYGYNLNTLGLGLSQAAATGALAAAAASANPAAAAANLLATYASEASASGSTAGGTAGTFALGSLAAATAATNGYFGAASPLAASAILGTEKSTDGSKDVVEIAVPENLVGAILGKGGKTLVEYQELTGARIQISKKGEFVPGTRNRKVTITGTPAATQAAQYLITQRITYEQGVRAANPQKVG

B1: UCAU RNA probe (stem-loop) (structured_RNA)
RNA: CCUUAUCAUGCUGACUCACGUCAUUUCAUCUCAUCAAGGGAGUCAGUGGGAUA
Kd [1]: 105 ± 11.6 nM
Kd [2]: 105 ± 8.3 nM
